Data reported in paper PMC7412794.
Entries after “also recorded” stand apart in the source; their conditions may differ.

B1: Trichoderma reesei Cel7A (TrCel7A): endoglycosidase H (protein)
parent chain: MYRKLAVISAFLATARAQSACTLQSETHPPLTWQKCSSGGTCTQQTGSVVIDANWRWTHATNSSTNCYDGNTWSSTLCPDNETCAKNCCLDGAAYASTYGVTTSGNSLSIGFVTQSAQKNVGARLYLMASDTTYQEFTLLGNEFSFDVDVSQLPCGLNGALYFVSMDADGGVSKYPTNTAGAKYGTGYCDSQCPRDLKFINGQANVEGWEPSSNNANTGIGGHGSCCSEMDIWEANSISEALTPHPCTTVGQEICEGDGCGGTYSDNRYGGTCDPDGCDWNPYRLGNTSFYGPGSSFTLDTTKKLTVVTQFETSGAINRYYVQNGVTFQQPNAELGSYSGNELNDDYCTAEEAEFGGSSFSDKGGLTQFKKATSGGMVLVMSLWDDYYANMLWLDSTYPTNETSSTPGAVRGSCSTSSGVPAQVESQSPNAKVTFSNIKFGPIGSTGNPSGGNPPGGNRGTTTTRRPATTTGSSPGPTQSHYGQCGGIGYSGPTVCASGTTCQVLNPYYSQCL
B2: Trichoderma reesei Cel7A (TrCel7A): ΔN-glycAo (protein)
parent chain: MYRKLAVISAFLATARAQSACTLQSETHPPLTWQKCSSGGTCTQQTGSVVIDANWRWTHATNSSTNCYDGNTWSSTLCPDNETCAKNCCLDGAAYASTYGVTTSGNSLSIGFVTQSAQKNVGARLYLMASDTTYQEFTLLGNEFSFDVDVSQLPCGLNGALYFVSMDADGGVSKYPTNTAGAKYGTGYCDSQCPRDLKFINGQANVEGWEPSSNNANTGIGGHGSCCSEMDIWEANSISEALTPHPCTTVGQEICEGDGCGGTYSDNRYGGTCDPDGCDWNPYRLGNTSFYGPGSSFTLDTTKKLTVVTQFETSGAINRYYVQNGVTFQQPNAELGSYSGNELNDDYCTAEEAEFGGSSFSDKGGLTQFKKATSGGMVLVMSLWDDYYANMLWLDSTYPTNETSSTPGAVRGSCSTSSGVPAQVESQSPNAKVTFSNIKFGPIGSTGNPSGGNPPGGNRGTTTTRRPATTTGSSPGPTQSHYGQCGGIGYSGPTVCASGTTCQVLNPYYSQCL
B3: Trichoderma reesei Cel7A (TrCel7A): N384QAo (protein)
parent chain: MYRKLAVISAFLATARAQSACTLQSETHPPLTWQKCSSGGTCTQQTGSVVIDANWRWTHATNSSTNCYDGNTWSSTLCPDNETCAKNCCLDGAAYASTYGVTTSGNSLSIGFVTQSAQKNVGARLYLMASDTTYQEFTLLGNEFSFDVDVSQLPCGLNGALYFVSMDADGGVSKYPTNTAGAKYGTGYCDSQCPRDLKFINGQANVEGWEPSSNNANTGIGGHGSCCSEMDIWEANSISEALTPHPCTTVGQEICEGDGCGGTYSDNRYGGTCDPDGCDWNPYRLGNTSFYGPGSSFTLDTTKKLTVVTQFETSGAINRYYVQNGVTFQQPNAELGSYSGNELNDDYCTAEEAEFGGSSFSDKGGLTQFKKATSGGMVLVMSLWDDYYANMLWLDSTYPTNETSSTPGAVRGSCSTSSGVPAQVESQSPNAKVTFSNIKFGPIGSTGNPSGGNPPGGNRGTTTTRRPATTTGSSPGPTQSHYGQCGGIGYSGPTVCASGTTCQVLNPYYSQCL
B4: Trichoderma reesei Cel7A (TrCel7A): N270QAo (protein)
parent chain: MYRKLAVISAFLATARAQSACTLQSETHPPLTWQKCSSGGTCTQQTGSVVIDANWRWTHATNSSTNCYDGNTWSSTLCPDNETCAKNCCLDGAAYASTYGVTTSGNSLSIGFVTQSAQKNVGARLYLMASDTTYQEFTLLGNEFSFDVDVSQLPCGLNGALYFVSMDADGGVSKYPTNTAGAKYGTGYCDSQCPRDLKFINGQANVEGWEPSSNNANTGIGGHGSCCSEMDIWEANSISEALTPHPCTTVGQEICEGDGCGGTYSDNRYGGTCDPDGCDWNPYRLGNTSFYGPGSSFTLDTTKKLTVVTQFETSGAINRYYVQNGVTFQQPNAELGSYSGNELNDDYCTAEEAEFGGSSFSDKGGLTQFKKATSGGMVLVMSLWDDYYANMLWLDSTYPTNETSSTPGAVRGSCSTSSGVPAQVESQSPNAKVTFSNIKFGPIGSTGNPSGGNPPGGNRGTTTTRRPATTTGSSPGPTQSHYGQCGGIGYSGPTVCASGTTCQVLNPYYSQCL
B5: Trichoderma reesei Cel7A (TrCel7A): N45QAo (protein)
parent chain: MYRKLAVISAFLATARAQSACTLQSETHPPLTWQKCSSGGTCTQQTGSVVIDANWRWTHATNSSTNCYDGNTWSSTLCPDNETCAKNCCLDGAAYASTYGVTTSGNSLSIGFVTQSAQKNVGARLYLMASDTTYQEFTLLGNEFSFDVDVSQLPCGLNGALYFVSMDADGGVSKYPTNTAGAKYGTGYCDSQCPRDLKFINGQANVEGWEPSSNNANTGIGGHGSCCSEMDIWEANSISEALTPHPCTTVGQEICEGDGCGGTYSDNRYGGTCDPDGCDWNPYRLGNTSFYGPGSSFTLDTTKKLTVVTQFETSGAINRYYVQNGVTFQQPNAELGSYSGNELNDDYCTAEEAEFGGSSFSDKGGLTQFKKATSGGMVLVMSLWDDYYANMLWLDSTYPTNETSSTPGAVRGSCSTSSGVPAQVESQSPNAKVTFSNIKFGPIGSTGNPSGGNPPGGNRGTTTTRRPATTTGSSPGPTQSHYGQCGGIGYSGPTVCASGTTCQVLNPYYSQCL
B6: Trichoderma reesei Cel7A (TrCel7A): ΔN-glycTr (protein)
parent chain: MYRKLAVISAFLATARAQSACTLQSETHPPLTWQKCSSGGTCTQQTGSVVIDANWRWTHATNSSTNCYDGNTWSSTLCPDNETCAKNCCLDGAAYASTYGVTTSGNSLSIGFVTQSAQKNVGARLYLMASDTTYQEFTLLGNEFSFDVDVSQLPCGLNGALYFVSMDADGGVSKYPTNTAGAKYGTGYCDSQCPRDLKFINGQANVEGWEPSSNNANTGIGGHGSCCSEMDIWEANSISEALTPHPCTTVGQEICEGDGCGGTYSDNRYGGTCDPDGCDWNPYRLGNTSFYGPGSSFTLDTTKKLTVVTQFETSGAINRYYVQNGVTFQQPNAELGSYSGNELNDDYCTAEEAEFGGSSFSDKGGLTQFKKATSGGMVLVMSLWDDYYANMLWLDSTYPTNETSSTPGAVRGSCSTSSGVPAQVESQSPNAKVTFSNIKFGPIGSTGNPSGGNPPGGNRGTTTTRRPATTTGSSPGPTQSHYGQCGGIGYSGPTVCASGTTCQVLNPYYSQCL

Columns and labels:
[1] = invMM kinetics, 12 g/L Avicel; conditions: glycan lost; control: untreated TrCel7A CD (no linker, no CBM)
[2] = pNP-Lac activity after 1 h at Tm−5 °C; conditions: glycan lost
DSC = conditions: glycan lost
[3] = convMM kinetics, 50 °C, 1 h, reducing ends; conditions: glycan lost; control: WTAo
[4] = invMM kinetics (enzyme excess), 50 °C, 1 h; conditions: glycan lost; control: WTAo

Protein | stability_or_folding, other: residual activity ([2]; control: WTAo) | stability_or_folding, Tm (DSC; control: WTAo) | enzymatic_activity, other: convVmax/E0 (kcat) [3] | further results
B1 | – | – | – | enzymatic_activity [1]: increases
B2 | decreases, 41 ± 2 vs 57 ± 1 | decreases, 65.0 vs 67.9 | – | –
B3 | no change, 57 ± 3 vs 57 ± 1 | decreases, 66.1 vs 67.9 | decreases, 0.34 ± 0.01 vs 0.48 ± 0.02; also recorded: decreases, 1.01 ± 0.03 vs 1.46 ± 0.14 | –
B4 | no change, 60 ± 3 vs 57 ± 1 | decreases, 66.9 vs 67.9 | – | –
B5 | decreases, 38 ± 2 vs 57 ± 1 | decreases, 67.4 vs 67.9 | no change, 1.33 ± 0.09 vs 1.46 ± 0.14 | enzymatic_activity, other: invVmax/S0 [4]: increases, 0.52 ± 0.02 vs 0.45 ± 0.02
B6 | – | – | – | stability_or_folding, other: residual activity ([2]; control: WTTr): no change, 44 ± 1 vs 45 ± 2; stability_or_folding, Tm (DSC; control: WTTr): decreases, 65.2 vs 67.9
